B1: Tubulin-folding cofactor A (Arabidopsis thaliana (Mouse-ear cress)), O04350 (parent)
chain: MATIRNLKIKTSTCKRIVKELHSYEKEVEREAAKTADMKDKGADPYDLKQQENVLGESRMMIPDCHKRLESALADLKSTLAELEETDEKEGPEIEDAKKTVADVEKQFPTEDA

Variants of B1 are the subject of the first assay. Conditions: with tbb9_arath TUBB9, P29517.
Chain of tbb9_arath TUBB9, P29517 (P29517 whole entry): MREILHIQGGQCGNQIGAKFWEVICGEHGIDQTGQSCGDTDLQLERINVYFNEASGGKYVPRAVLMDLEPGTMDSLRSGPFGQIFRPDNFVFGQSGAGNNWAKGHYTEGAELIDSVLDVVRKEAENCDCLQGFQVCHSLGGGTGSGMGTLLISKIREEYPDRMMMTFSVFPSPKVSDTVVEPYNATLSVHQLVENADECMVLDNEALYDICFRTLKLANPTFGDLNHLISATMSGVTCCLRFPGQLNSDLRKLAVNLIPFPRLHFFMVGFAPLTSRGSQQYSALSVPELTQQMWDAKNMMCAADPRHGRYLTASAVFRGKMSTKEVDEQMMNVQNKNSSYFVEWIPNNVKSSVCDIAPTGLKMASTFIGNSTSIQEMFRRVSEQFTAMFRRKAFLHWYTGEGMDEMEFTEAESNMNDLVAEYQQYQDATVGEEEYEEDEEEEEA
On to MATIRNLKIKTSTCKRIVKELHSAEKEVEREAAKTADMKDKGADPYDLKQQENVLGESRMMIPDCHKRLESALADLKSTLAELEETDEKEGPEIEDAKKTVADVEKQFPTEDA [Y24A], for which the “effect of a mutation on the interaction” value was “disrupting interaction”.

A further assay covers variants of B1. The following applies: with tbb9_arath TUBB9, P29517. The source holds these as a separate data set.
For MATIRNLKIKTSTCKRIVKALHSYEKEVEREAAKTADMKDKGADPYDLKQQENVLGESRMMIPDCHKRLESALADLKSTLAELEETDEKEGPEIEDAKKTVADVEKQFPTEDA [E20A], the “effect of a mutation on the interaction” value is “disrupting interaction”.

The next assay covers variants of B1. The following applies: with tbb9_arath TUBB9, P29517. The source holds these as a separate data set.
On to MATIRNLKIKTSTCKRIVKELHSYEKEVEREAAKTADMKDKGADPYDLKQQENVLGASRMMIPDCHKRLESALADLKSTLAELEETDEKEGPEIEDAKKTVADVEKQFPTEDA [E57A], for which the “effect of a mutation on the interaction” value was “disrupting interaction”.

These data come from IntAct's records for PubMed 20638386.
